{
  "source": "paper PMC8723827",
  "about": "(Cell, 2022)",
  "binders": {"B1": {"name": "mAb 58 Fab (COVOX-58) (Fab, V domains shown)", "VH": "QVQLVESGGGLVQPGRSLRLSCAASGFTFDDYAMHWVRQPPGKGLEWVSGVSWNSGTIGYADSVKGRFIISRDNAKNSLYLQMNSLKAEDTALYYCAREVGGTFGVLISREGGLDYWGQGTLVTVSS", "VL": "SYELTQPPSVSVAPGQTARITCGGNTIGSKSVHWYQQRPGQAPVLVVYDDSDRPSGIPERFSGSNSGNTATLTISRVEAGDEADYYCQVWDSSSDRVVFGGGTKLTVL"}, "B2": {"name": "EY6A mAb (IgG) (antibody, V domains shown)", "VH": "EVQLVESGGGVVQPGRSLRLSCAASAFTFSSYDMHWVRQAPGKGLEWVAVISYDGSNKYYADSVKGRFTISRDNSKNTLYLQMNSLRAEDTAVYYCAKDGGKLWVYYFDYWGQGTLVTVSS", "VL": "not shown"}, "B3": {"name": "Beta-55 mAb (IgG) (antibody, V domains shown)", "VH": "QVQLQESGPGLVKPSETLSLTCTVSGDSISSSRYYWGWIRQPPGKGLEWIGTFYYSGITYYNPSLKSRVTIFVDTSKNQFSLKLSSVTAADTAVYYCARPRPPDYYDNSGALLFDIWGQGTMVTVSS", "VL": "AIRMTQSPSTLSASVGDRVTIACRASQSISAWLAWYQQKPGKAPKLLIYKASSLESGVPSRFSGSGSGTEFTLTINSLQPDDFATYYCQQYISSSPWTFGQGTKVEIK"}, "B4": {"name": "mAb 158 Fab (COVOX-158) (Fab, V domains shown)", "VH": "EVQLLESGGDLIQPGGSLRLSCAASGVTVSSNYMSWVRQAPGKGLEWVSIIYPGGSTFYADSVKGRFTISRDNSKNTLYLQMHSLRAEDTAVYYCARDLGSGDMDVWGKGTTVTVSS", "VL": "DIVMTQSPSFLSASVGDRVTITCRASQGISSYLAWYQQKPGKAPKLLIQAASTLQSGVPSRFSGSGSGTEFTLTISSLQPEDFATYYCQQLNSYRYTFGQGTKVEIK"}},
  "key": {"[1]": {"target": "T1, His-tagged SARS-CoV-2 RBD (early pandemic, Wuhan) (SARS-CoV-2, UniProt P0DTC2)", "assay": "crystal structure", "details": "both partners purified"}, "[2]": {"target": "T1, His-tagged SARS-CoV-2 RBD (early …)", "assay": "SPR", "details": "both partners purified"}},
  "data": [
    {"binder": "B1", "values": [
      {"measurement": "binding result", "setting": "[1]", "value": "binds"}
    ]},
    {"binder": "B2", "values": [
      {"measurement": "Kd", "setting": "[2]", "value": 7.8, "unit": "nM"}
    ]},
    {"binder": "B3", "values": [
      {"measurement": "Kd", "setting": "[2]", "value": 0.177, "unit": "nM"}
    ]},
    {"binder": "B4", "values": [
      {"measurement": "binding result", "setting": "[1]", "value": "binds"}
    ]}
  ]
}
